Laboratory results: patent US12091680B2, “Method for differentiation induction in cultured stem cells” (RIKEN, priority 2009, dated 2024)

B1: Activin: Human Activin (R&D); acts on cell surface receptors common with Nodal and activates Smad2/3 signals (protein, UniProt P08476 311-426, looked up)
Inhibin beta A chain: GLECDGKVNICCKKQFFVSFKDIGWNDWIIAPSGYHANYCEGECPSHIAGTSGSSLSFHSTVINHYRMRGHSPFANLKSCCVPTKLRPMSMLYYDDGQNIIKKDIQNMIVEECGCS
B2: TGF-beta2: growth factor tested at 1000 ng/ml in place of Nodal; printed as 'TGF-beta1 or 2' (protein, UniProt P61812 303-414, looked up)
Transforming growth factor …: ALDAAYCFRNVQDNCCLRPLYIDFKRDLGWKWIHEPKGYNANFCAGACPYLWSSDTQHSRVLSLYNTINPEASASPCCVSQDLEPLTILYYIGKTPKIEQLSNMIVKSCKCS
B3: Nodal: Recombinant Mouse Nodal (R&D); acts on cell surface receptors common with Activin and activates Smad2/3 signals (protein, UniProt P43021 245-354, looked up)
Nodal: HHLPDRSQLCRRVKFQVDFNLIGWGSWIIYPKQYNAYRCEGECPNPVGEEFHPTNHAYIQSLLKRYQPHRVPSTCCAPVKTKPLSMLYVDNGRVLLEHHKDMIVEECGCL

Test system: Rx-GFP ES cells
Assay: SFEBq culture with purified laminin/entactin and Nodal/Activin, formation of RxGFP+ vesicles and cup structures (Example 6)
Format: cell-based, mouse
Conditions: for replacement of the retinal inducing activity of Nodal: 1000 ng/ml; for replacement of the retinal inducing activity of Nodal / appearance of Rx-GFP+ epithelia in SFEBq aggregates / morphology of Rx-GFP+ epithelia: combined with laminin+entactin; for appearance of Rx-GFP+ epithelia in SFEBq aggregates / morphology of Rx-GFP+ epithelia: treatment days 1-7; for appearance of Rx-GFP+ epithelia in SFEBq aggregates: Nodal 500 and 1000 ng/ml, Activin 250 ng/ml, read on day 7; for morphology of Rx-GFP+ epithelia: day 7 and day 10; for effect on neural (Sox1) and retinal (Rx) differentiation: treatment of SFEBq cells from day 0
Procedure: Rx-GFP ES cells (3000 cells/well, 96-well plate) were cultured in SFEBq culture with G-MEM supplemented with 1.5% KSR. In this experiment, instead of adding Matrigel to culture, purified laminin and entactin (High concentration Laminin/Entactin complex; BD; 120 μg/ml) were added as extracellular matrix proteins on day 1 (24 hours after the onset of differentiation culture). Recombinant Mouse Nodal (R&D; 500-1000 ng/mL) or Human Activin (R&D; 250 ng/ml) was also added on day 1 and the Nodal treatment was continued until day 7. SFEBq aggregates were cultured for 7-10 days and the formation of RxGFP+ vesicles and cup structures were examined under a fluorescent microscope. Nodal and Activin are known to act on common cell surface receptors and activate Smad2/3 signals in the cell.

Row | Molecule | replacement of the retinal inducing activity of Nodal | appearance of Rx-GFP+ epithelia in SFEBq aggregates | morphology of Rx-GFP+ epithelia | effect on neural (Sox1) and retinal (Rx) differentiation
1 | TGF-beta1: growth factor tested at 1000 ng/ml in place of Nodal | did not replace the inducing activity of Nodal | – | – | –
2 | B1 | – | large patches of Rx-GFP+ epithelia appeared | formed optic vesicle-like sacs on day 7 and later exhibited the optic cup-like morphology on day 10 | inhibited both neural (Sox1) and retinal (Rx) differentiation
3 | B2 | did not replace the inducing activity of Nodal | – | – | –
4 | B3 | – | large patches of Rx-GFP+ epithelia appeared | formed optic vesicle-like sacs on day 7 and later exhibited the optic cup-like morphology on day 10 | inhibited both neural (Sox1) and retinal (Rx) differentiation
